# Assay results as given in paper PMC6290062, “Characterization of a Novel, Cold-Adapted, and Thermostable Laccase-Like Enzyme With High Tolerance for Organic Solvents and Salt and Potent Dye Decolorization Ability, Derived From a Marine Metagenomic Library” (Frontiers in Microbiology, 2018).
# Columns and labels:
# Assay in all cases: purified protein
# Conditions in all cases: 0.04 M Britton-Robinson buffer, pH 7.0, 60°C
# COc1ccccc1O = type: biochemical, uncultured bacterium
# Oc1ccccc1O = test system: Oc1ccccc1O
# [1] = test system: COc1cc(C=NN=Cc2cc(OC)c(O)c(OC)c2)cc(OC)c1O
substance,measurement,setting,value
Lac1326 (uncultured bacterium),Km,COc1ccccc1O,4900 µM
same,kcat,COc1ccccc1O,1.34 s⁻¹
same,kcat/Km,COc1ccccc1O,270 M⁻¹ s⁻¹
same,Km,Oc1ccccc1O,507 µM
same,kcat/Km,Oc1ccccc1O,28000 M⁻¹ s⁻¹
same,Km,[1],831 µM
same,kcat,[1],24.1 s⁻¹
same,kcat/Km,[1],29000 M⁻¹ s⁻¹
